Patent US20250000946A1 (WUXI BIOLOGICS IRELAND, published 2025)

Experiments:
[1] = biological target: T1, Human IL-2Rβ/γ (intermediate affinity IL-2 receptor) (human, UniProt P14784 27-551; P31785 23-369); experiment: cell-based or functional assay
T1 sequence (looked up) 1: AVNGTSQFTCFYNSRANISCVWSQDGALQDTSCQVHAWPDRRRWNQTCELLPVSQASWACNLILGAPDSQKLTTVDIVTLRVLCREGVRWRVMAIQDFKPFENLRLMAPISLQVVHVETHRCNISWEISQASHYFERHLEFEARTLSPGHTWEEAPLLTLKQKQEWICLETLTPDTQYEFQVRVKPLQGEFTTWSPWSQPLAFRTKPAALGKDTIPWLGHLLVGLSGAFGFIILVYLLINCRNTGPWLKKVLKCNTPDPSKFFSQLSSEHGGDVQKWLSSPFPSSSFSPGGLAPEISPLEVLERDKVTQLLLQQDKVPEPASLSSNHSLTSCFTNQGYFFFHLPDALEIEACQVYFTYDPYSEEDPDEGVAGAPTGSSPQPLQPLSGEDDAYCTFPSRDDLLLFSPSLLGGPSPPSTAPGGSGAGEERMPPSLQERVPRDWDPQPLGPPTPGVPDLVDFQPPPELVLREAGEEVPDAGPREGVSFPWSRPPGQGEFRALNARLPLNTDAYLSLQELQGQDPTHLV
T1 sequence (looked up) 2: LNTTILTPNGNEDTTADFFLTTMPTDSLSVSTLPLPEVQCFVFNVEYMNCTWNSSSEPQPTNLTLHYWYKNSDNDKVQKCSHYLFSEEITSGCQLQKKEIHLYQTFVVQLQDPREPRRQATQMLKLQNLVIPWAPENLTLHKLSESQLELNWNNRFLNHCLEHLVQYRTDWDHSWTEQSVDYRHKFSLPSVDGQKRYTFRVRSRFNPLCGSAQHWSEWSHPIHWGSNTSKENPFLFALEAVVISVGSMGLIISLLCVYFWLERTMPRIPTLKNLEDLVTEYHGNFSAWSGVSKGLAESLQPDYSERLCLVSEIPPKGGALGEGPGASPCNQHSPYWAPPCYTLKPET

[2] = biological target: T2, Human IL-2Rα/β/γ complex (high affinity IL-2 receptor) (human, UniProt P01589 22-272; P14784 27-551; P31785 23-369); experiment: cell-based or functional assay
T2 sequence (looked up) 1: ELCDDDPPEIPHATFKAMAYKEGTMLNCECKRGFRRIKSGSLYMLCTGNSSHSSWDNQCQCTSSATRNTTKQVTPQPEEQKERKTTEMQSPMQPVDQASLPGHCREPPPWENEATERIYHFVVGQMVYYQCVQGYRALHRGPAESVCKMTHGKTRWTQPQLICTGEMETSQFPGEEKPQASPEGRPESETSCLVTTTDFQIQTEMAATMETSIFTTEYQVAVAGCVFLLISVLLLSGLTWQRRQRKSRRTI
T2 sequence (looked up) 2: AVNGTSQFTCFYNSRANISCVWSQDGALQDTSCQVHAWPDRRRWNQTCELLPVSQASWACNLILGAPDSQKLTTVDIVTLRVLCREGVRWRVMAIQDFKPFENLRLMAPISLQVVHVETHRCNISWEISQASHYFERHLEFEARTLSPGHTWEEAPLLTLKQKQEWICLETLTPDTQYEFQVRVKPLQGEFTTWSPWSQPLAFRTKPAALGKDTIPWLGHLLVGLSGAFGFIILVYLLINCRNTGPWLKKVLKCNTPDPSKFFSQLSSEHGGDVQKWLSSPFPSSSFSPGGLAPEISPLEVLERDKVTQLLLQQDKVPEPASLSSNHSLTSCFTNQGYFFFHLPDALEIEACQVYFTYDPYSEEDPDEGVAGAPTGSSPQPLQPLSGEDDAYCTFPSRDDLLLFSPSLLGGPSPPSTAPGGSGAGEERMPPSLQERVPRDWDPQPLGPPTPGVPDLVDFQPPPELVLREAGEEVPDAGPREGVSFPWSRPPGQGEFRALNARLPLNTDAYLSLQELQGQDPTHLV
T2 sequence (looked up) 3: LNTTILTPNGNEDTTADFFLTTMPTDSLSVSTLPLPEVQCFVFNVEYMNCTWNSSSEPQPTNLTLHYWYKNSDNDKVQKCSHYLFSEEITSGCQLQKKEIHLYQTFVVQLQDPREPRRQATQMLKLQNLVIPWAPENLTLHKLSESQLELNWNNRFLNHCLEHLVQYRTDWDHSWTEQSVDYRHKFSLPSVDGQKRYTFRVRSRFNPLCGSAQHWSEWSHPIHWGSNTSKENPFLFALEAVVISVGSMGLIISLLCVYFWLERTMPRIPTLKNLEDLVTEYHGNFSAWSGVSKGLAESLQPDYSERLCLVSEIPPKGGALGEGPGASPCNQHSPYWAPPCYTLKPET

[3] = biological target: T1, Human IL-2Rβ/γ (intermediate affinity …); experiment: FACS, HH cells
Method in brief: (§1)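 Cells: HH (IL-2Rβ/γ), NK92 and MJ20 (IL-2Rα/β/γ). 30 min 4° C. with IL-2/Fc at indicated concentrations; PE-anti-human Fc 30 min 4° C.; FACS MFI.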

[4] = biological target: T2, Human IL-2Rα/β/γ complex (high affinity …); experiment: FACS, MJ20 cells
Description: (§2) Human cutaneous T cell lymphoma HH cells, malignant non-Hodgkin's lymphoma NK92 cells and cutaneous T cell lymphoma MJ20 cells were used for binding assay. They both constitutively express IL-2Rβ (CD122) and […] (CD132), and NK92 and MJ20 also expresses IL-2Rα (CD25). HH, NK92 and MJ20 cells were cultured following ATCC guidance, then transferred to a 96-plate for binding analysis. Cells were incubated with IL-2/Fc fusion proteins at the indicated concentrations for 30 min at 4° C. to avoid internalization. Binding was detected by 2nd antibody of PE-anti-human Fc at 4° C. for another 30 min. The median fluorescence intensity (MFI) on HH and NK92 cells was measured using FACS.

[5] = biological target: T2, Human IL-2Rα/β/γ complex (high affinity …); experiment: FACS, MJ20 cells; EC50 fold vs T2U0.E44-1
Description: as §2

[6] = biological target: T1, Human IL-2Rβ/γ (intermediate affinity …); experiment: FACS, HH cells; EC50 fold vs T2U0.E44-1
Method in brief: as §1

Binder	Potency in human CD8+ T EC50 [1] [nM]	Potency reduction (CD8+ T) [1] [fold]	Potency in human Treg EC50 [2] [nM]	Potency reduction (Treg) [2] [fold]	EC50 [3] [nM]	EC50 [4] [nM]	Affinity reduction [5] [fold]	Affinity reduction [6] [fold]
W3XX115-T2U0.E44-34.uIgG4V322 (Fc fusion, IL-2 del STLT and S127A; E44 format, IgG4 FALA) APTSSSTKKTQLQLEHLLLDLQMILNGINNYKNPKLTRMLTFKFYMPKKATELKHLQCLEEELKPLEEVLNLAQSKNFHLRPRDLISNINVIVLELKGSETTFMCEYADETATIVEFLNRWITFCQAIIESKYGPPCPPCPAPEAAGGPSVFLFPPKPKDTLMISRTPEVTCVVVDVSQEDPEVQFNWYVDGVEVHNAKTKPREEQFNSTYRVVSVLTVLHQDWLNGKEYKCKVSNKGLPSSIEKTISKAKGQPREPQVYTLPPCQEEMTKNQVSLWCLVKGFYPSDIAVEWESNGQPENNYKTTPPVLDSDGSFFLYSRLTVDKSRWQEGNVFSCSVMHEALHNHYTQKSLSLSLG heavy: EIQLQQSGPELVKPGASVKVSCKASGYSFTDYNMYWVKQSHGESLEWIGYIDPYNGGTRYNQKFKGKATLTVDKSSSTAFMHLNSLTSEDSAVYYCARNGHWDGAWFAYWGQGTLVTVSAASTKGPSVFPLAPCSRSTSESTAALGCLVKDYFPEPVTVSWNSGALTSGVHTFPAVLQSSGLYSLSSVVTVPSSSLGTKTYTCNVDHKPSNTKVDKRVESKYGPPCPPCPAPEAAGGPSVFLFPPKPKDTLMISRTPEVTCVVVDVSQEDPEVQFNWYVDGVEVHNAKTKPREEQFNSTYRVVSVLTVLHQDWLNGKEYKCKVSNKGLPSSIEKTISKAKGQPREPQVCTLPPSQEEMTKNQVSLSCAVKGFYPSDIAVEWESNGQPENNYKTTPPVLDSDGSFFLVSRLTVDKSRWQEGNVFSCSVMHEALHNHYTQKSLSLSLG light: DIQMNQSPSSLSASLGDTITITCHASQNINVWLSWYQQKPGNIPKLLIYKASNLHTGVPSRFSGSRSGTGFTLTISSLQPEDIATYYCHQGQSYPFTFGSGTKLEIKRTVAAPSVFIFPPSDEQLKSGTASVVCLLNNFYPREAKVQWKVDNALQSGNSQESVTEQDSKDSTYSLSSTLTLSKADYEKHKVYACEVTHQGLSSPVTKSFNRGEC	180	17.7	0.21	104	720	60.9	1.5	13.7
W3XX115-T2U0.E44-38.uIgG4V322 (Fc fusion, IL-2 del STLT and C125A; E44 format, IgG4 FALA) APTSSSTKKTQLQLEHLLLDLQMILNGINNYKNPKLTRMLTFKFYMPKKATELKHLQCLEEELKPLEEVLNLAQSKNFHLRPRDLISNINVIVLELKGSETTFMCEYADETATIVEFLNRWITFAQSIIESKYGPPCPPCPAPEAAGGPSVFLFPPKPKDTLMISRTPEVTCVVVDVSQEDPEVQFNWYVDGVEVHNAKTKPREEQFNSTYRVVSVLTVLHQDWLNGKEYKCKVSNKGLPSSIEKTISKAKGQPREPQVYTLPPCQEEMTKNQVSLWCLVKGFYPSDIAVEWESNGQPENNYKTTPPVLDSDGSFFLYSRLTVDKSRWQEGNVFSCSVMHEALHNHYTQKSLSLSLG heavy: EIQLQQSGPELVKPGASVKVSCKASGYSFTDYNMYWVKQSHGESLEWIGYIDPYNGGTRYNQKFKGKATLTVDKSSSTAFMHLNSLTSEDSAVYYCARNGHWDGAWFAYWGQGTLVTVSAASTKGPSVFPLAPCSRSTSESTAALGCLVKDYFPEPVTVSWNSGALTSGVHTFPAVLQSSGLYSLSSVVTVPSSSLGTKTYTCNVDHKPSNTKVDKRVESKYGPPCPPCPAPEAAGGPSVFLFPPKPKDTLMISRTPEVTCVVVDVSQEDPEVQFNWYVDGVEVHNAKTKPREEQFNSTYRVVSVLTVLHQDWLNGKEYKCKVSNKGLPSSIEKTISKAKGQPREPQVCTLPPSQEEMTKNQVSLSCAVKGFYPSDIAVEWESNGQPENNYKTTPPVLDSDGSFFLVSRLTVDKSRWQEGNVFSCSVMHEALHNHYTQKSLSLSLG light: DIQMNQSPSSLSASLGDTITITCHASQNINVWLSWYQQKPGNIPKLLIYKASNLHTGVPSRFSGSRSGTGFTLTISSLQPEDIATYYCHQGQSYPFTFGSGTKLEIKRTVAAPSVFIFPPSDEQLKSGTASVVCLLNNFYPREAKVQWKVDNALQSGNSQESVTEQDSKDSTYSLSSTLTLSKADYEKHKVYACEVTHQGLSSPVTKSFNRGEC	268	26.3	5	2540		201	4.8	400000
W3XX115-T2U0.E44-35.uIgG4V322 (Fc fusion, IL-2 del STLT and S127T; E44 format, IgG4 FALA) APTSSSTKKTQLQLEHLLLDLQMILNGINNYKNPKLTRMLTFKFYMPKKATELKHLQCLEEELKPLEEVLNLAQSKNFHLRPRDLISNINVIVLELKGSETTFMCEYADETATIVEFLNRWITFCQTIIESKYGPPCPPCPAPEAAGGPSVFLFPPKPKDTLMISRTPEVTCVVVDVSQEDPEVQFNWYVDGVEVHNAKTKPREEQFNSTYRVVSVLTVLHQDWLNGKEYKCKVSNKGLPSSIEKTISKAKGQPREPQVYTLPPCQEEMTKNQVSLWCLVKGFYPSDIAVEWESNGQPENNYKTTPPVLDSDGSFFLYSRLTVDKSRWQEGNVFSCSVMHEALHNHYTQKSLSLSLG heavy: EIQLQQSGPELVKPGASVKVSCKASGYSFTDYNMYWVKQSHGESLEWIGYIDPYNGGTRYNQKFKGKATLTVDKSSSTAFMHLNSLTSEDSAVYYCARNGHWDGAWFAYWGQGTLVTVSAASTKGPSVFPLAPCSRSTSESTAALGCLVKDYFPEPVTVSWNSGALTSGVHTFPAVLQSSGLYSLSSVVTVPSSSLGTKTYTCNVDHKPSNTKVDKRVESKYGPPCPPCPAPEAAGGPSVFLFPPKPKDTLMISRTPEVTCVVVDVSQEDPEVQFNWYVDGVEVHNAKTKPREEQFNSTYRVVSVLTVLHQDWLNGKEYKCKVSNKGLPSSIEKTISKAKGQPREPQVCTLPPSQEEMTKNQVSLSCAVKGFYPSDIAVEWESNGQPENNYKTTPPVLDSDGSFFLVSRLTVDKSRWQEGNVFSCSVMHEALHNHYTQKSLSLSLG light: DIQMNQSPSSLSASLGDTITITCHASQNINVWLSWYQQKPGNIPKLLIYKASNLHTGVPSRFSGSRSGTGFTLTISSLQPEDIATYYCHQGQSYPFTFGSGTKLEIKRTVAAPSVFIFPPSDEQLKSGTASVVCLLNNFYPREAKVQWKVDNALQSGNSQESVTEQDSKDSTYSLSSTLTLSKADYEKHKVYACEVTHQGLSSPVTKSFNRGEC	10.7	1.1	0.073	37.1	576	92.8	2.2	10.9
